These results are taken from patent publication US20040180811A1 (NEW ENGLAND MEDICAL CENTER HOSPITAL, published 2004).

Test [1] has as its target T1, GFP-MBSLZM (full-length GFP-MBS with the C-terminal domain of GST-MBSLZmutant) (human, UniProt O14974 1-1030).
T1 construct: also called GFP-MBSLZ mutant; not shown: GFP of the pEGFP vector
T1 sequence (looked up): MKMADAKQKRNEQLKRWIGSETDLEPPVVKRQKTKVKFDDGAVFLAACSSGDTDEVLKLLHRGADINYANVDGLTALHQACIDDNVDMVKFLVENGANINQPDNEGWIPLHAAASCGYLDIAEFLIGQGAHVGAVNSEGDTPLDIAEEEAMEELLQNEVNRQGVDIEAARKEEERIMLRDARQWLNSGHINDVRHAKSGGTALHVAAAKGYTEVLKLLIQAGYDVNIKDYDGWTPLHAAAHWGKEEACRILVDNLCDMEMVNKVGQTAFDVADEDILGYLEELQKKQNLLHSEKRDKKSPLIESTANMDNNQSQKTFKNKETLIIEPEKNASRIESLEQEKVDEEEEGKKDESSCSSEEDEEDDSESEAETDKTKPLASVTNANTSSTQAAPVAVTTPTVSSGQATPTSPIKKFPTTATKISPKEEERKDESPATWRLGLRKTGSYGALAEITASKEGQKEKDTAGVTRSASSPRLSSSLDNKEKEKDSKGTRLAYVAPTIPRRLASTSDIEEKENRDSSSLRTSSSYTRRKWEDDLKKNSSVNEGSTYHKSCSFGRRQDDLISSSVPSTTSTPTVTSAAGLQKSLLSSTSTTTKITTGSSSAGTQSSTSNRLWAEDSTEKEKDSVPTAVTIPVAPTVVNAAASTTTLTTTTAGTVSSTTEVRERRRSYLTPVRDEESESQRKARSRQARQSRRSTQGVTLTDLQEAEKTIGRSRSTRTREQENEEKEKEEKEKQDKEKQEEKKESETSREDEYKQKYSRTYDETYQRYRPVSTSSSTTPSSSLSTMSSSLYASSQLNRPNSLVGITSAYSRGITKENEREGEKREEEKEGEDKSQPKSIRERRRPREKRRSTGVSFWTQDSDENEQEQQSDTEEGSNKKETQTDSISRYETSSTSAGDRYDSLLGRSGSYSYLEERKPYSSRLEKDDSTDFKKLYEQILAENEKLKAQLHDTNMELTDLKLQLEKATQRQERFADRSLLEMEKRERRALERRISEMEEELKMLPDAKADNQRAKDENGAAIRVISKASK
Briefly: GST pull-down from lysate of transfected COS1 cells, anti-MBS immunoblot. On the technique in general: A western blot detects proteins with antibodies after separation by electrophoresis.

Test [2] has as its target T2, Myosin binding subunit (MBS) of myosin phosphatase, endogenous in human vascular smooth muscle cells (human, UniProt O14974 1-1030, limits assumed).
T2 construct: In lysate it stands in the myosin phosphatase complex with PP1 and the 20 kD subunit; also called MYPT1
T2 sequence (looked up): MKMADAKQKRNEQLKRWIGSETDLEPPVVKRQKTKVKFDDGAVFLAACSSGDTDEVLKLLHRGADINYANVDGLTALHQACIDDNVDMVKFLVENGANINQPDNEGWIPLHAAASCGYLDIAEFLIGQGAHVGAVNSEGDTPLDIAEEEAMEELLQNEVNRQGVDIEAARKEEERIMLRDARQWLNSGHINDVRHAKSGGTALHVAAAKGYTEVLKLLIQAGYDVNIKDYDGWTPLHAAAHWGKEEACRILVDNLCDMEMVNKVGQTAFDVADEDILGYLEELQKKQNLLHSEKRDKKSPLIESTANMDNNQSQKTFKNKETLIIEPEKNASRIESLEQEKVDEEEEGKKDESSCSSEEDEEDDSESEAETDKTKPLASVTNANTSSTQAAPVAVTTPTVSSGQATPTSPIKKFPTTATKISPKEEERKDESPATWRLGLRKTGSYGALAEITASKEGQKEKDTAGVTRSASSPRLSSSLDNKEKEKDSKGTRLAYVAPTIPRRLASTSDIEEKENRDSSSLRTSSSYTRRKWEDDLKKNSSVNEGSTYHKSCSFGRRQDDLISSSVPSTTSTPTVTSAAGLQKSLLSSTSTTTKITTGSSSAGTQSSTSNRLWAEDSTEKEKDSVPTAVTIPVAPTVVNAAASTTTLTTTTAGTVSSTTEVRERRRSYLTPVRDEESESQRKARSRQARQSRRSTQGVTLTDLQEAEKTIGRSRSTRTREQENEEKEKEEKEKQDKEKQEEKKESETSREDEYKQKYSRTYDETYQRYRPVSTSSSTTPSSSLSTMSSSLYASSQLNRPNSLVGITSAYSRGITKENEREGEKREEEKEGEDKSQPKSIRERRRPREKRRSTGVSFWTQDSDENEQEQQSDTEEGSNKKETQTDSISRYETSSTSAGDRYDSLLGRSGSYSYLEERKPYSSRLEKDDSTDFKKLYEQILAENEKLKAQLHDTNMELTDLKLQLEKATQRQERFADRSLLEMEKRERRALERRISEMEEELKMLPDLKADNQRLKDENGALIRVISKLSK
Briefly: GST pull-down from vascular smooth muscle cell lysate, anti-MBS immunoblot. The source says:
Also shown is the same M-RIP domains expressed in COS1 cells as Flag-tagged proteins and immunoprecipitated with M2 antibody. The MBS immunoblot of the immunopellets is shown in the middle panel and the total cellular MBS content from each lysate used for immunoprecipitation is shown in the lower panel. Molecular weight size markers in kD are shown on the right.
Identical results were obtained in heterologous expression studies with epitope-tagged constructs for various M-RIP domains expressed in COS1 cells (FIG. 4B).
(§1) For fusion protein interactions with proteins from cell lysates, confluent cells were rinsed twice with ice cold PBS, lysed in buffer A, incubated for 1 hour at room temperature, then centrifuged at 14,000 rpm for 20 minutes at 40C. The supernatant was mixed with GST-fusion proteins prebound to glutathione agarose beads. After overnight incubation at 40C, the beads were washed with buffer C, eluted with SDS sample buffer and bound proteins were analyzed by immunoblotting. For fusion protein interactions with purified proteins, fusion proteins immobilized on beads were incubated in buffer A for one hour with purified soluble protein previously eluted from beads. After incubation, the beads were washed three times with buffer C, bound proteins were eluted in SDS sample buffer and analyzed by immunoblotting with anti-GST antibodies.

Test [3] has as its target T3, MBS-Cterm-pGBT9 (human MBS base pairs 2043-3090 fused to the Gal4 DNA binding domain) (human, UniProt P04386 1-147; O14974 682-1030).
T3 construct: Bait of the yeast 2-hybrid screen
Briefly: yeast two-hybrid. From the text: Human MBS-Cterm, base pairs 2043-3090 (kind gift of Dr. Masaaki Ito) was cloned into the EcoR1 site of yeast 2-hybrid vectors pGBT9 and pGAD424, expressing MBS fusion proteins with Gal4 DNA binding domain and DNA activating domain, respectively. Expression of MBS-Cterm in yeast was confirmed by dimerization when MBS-Cterm-pGBT9 and MBS-Cterm-pGAD424 were coexpressed in yeast (data not shown). Yeast strain Y190 was sequentially transformed with MBSCterm- pGBT9 and a human aorta cDNA library (Clontech) using the lithium acetate method. Interactions were identified by growth on selective media, and confirmed by colony lift filter β-galactosidase assay. The cDNA library plasmid was extracted from confirmed positive yeast colonies, and sequenced at the Tufts Core Sequencing Facility.

Test [4] addresses T4, GST-MBSLZ (amino acids 847-1030 of MBS, includes the leucine zipper domain) (human, UniProt O14974 847-1030).
T4 construct: range 847-1030; also called wild type C terminal MBS; not shown: glutathione S-transferase (GST) tag
T4 sequence (looked up): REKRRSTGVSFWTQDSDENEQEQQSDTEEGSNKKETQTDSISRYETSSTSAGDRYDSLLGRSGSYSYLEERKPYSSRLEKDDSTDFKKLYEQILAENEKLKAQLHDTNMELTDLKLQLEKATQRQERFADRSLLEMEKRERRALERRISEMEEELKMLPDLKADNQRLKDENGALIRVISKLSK
Kind of test: purified protein interaction, His fusions on Ni-NTA beads, anti-GST immunoblot. The protocol: FIG. 4F show a series of immunoblots representing a purified protein interaction assay in which similar quantities of 6×his CC1, CC2, and CC3 bound to Ni-NTA beads were incubated with purified soluble GST-MBSLZ or GST-MBSLZ mutant. Bound GST-MBSLZ and GST-MBSLZ mutant were detected using anti-GST antibodies.
as §1

B1: GST-M-RIP545-878 (RhoA-binding domain plus the remaining carboxy-terminus of CC2) (other)
chain: AEFRPIQQALAQERVGGVGPADTHEPLRPEAESGELERERARRREERRKRFGMLDATDGPGTEDAALRMEVDRSPGLPMSDLKTHNVHVEIEQRWHQVETTPLREEKQVPIAPVHLSSEDGGDRLSTHELTSLLEKELEQSQKEASDLLEQNRLLQDQLRVALGREQSAREGYVLQATCERGFAAMEETHQKKIEDLQRQHQRELEKLREEKDRLLAEETAATISAIEAMKNAHREEMERELEKSQRSQISSVNSDVEALRRQYLEELQSVQRELEVLSEQYSQKCLENAHLAQALEAERQALRQCQRENQELNAHNQELNNRLAAEITRLRTL
notes: not shown: glutathione S-transferase (GST) tag of the pGEX vector
As for B1, the binding result in test [1] is listed as “no binding”.

B2: GST-M-RIP545-823 (M-RIP RhoA-binding domain) (other)
chain: AEFRPIQQALAQERVGGVGPADTHEPLRPEAESGELERERARRREERRKRFGMLDATDGPGTEDAALRMEVDRSPGLPMSDLKTHNVHVEIEQRWHQVETTPLREEKQVPIAPVHLSSEDGGDRLSTHELTSLLEKELEQSQKEASDLLEQNRLLQDQLRVALGREQSAREGYVLQATCERGFAAMEETHQKKIEDLQRQHQRELEKLREEKDRLLAEETAATISAIEAMKNAHREEMERELEKSQRSQISSVNSDVEALRRQYLEELQSVQRELEVLS
notes: as for B1
On to B2, for which, in test [2], the binding result is “no binding”.

B3: MBS-Cterm-pGAD424 (human MBS base pairs 2043-3090 fused to the Gal4 DNA activating domain) (other, UniProt O14974 682-1030, looked up, not shown: large carriers)
chain: RKARSRQARQSRRSTQGVTLTDLQEAEKTIGRSRSTRTREQENEEKEKEEKEKQDKEKQEEKKESETSREDEYKQKYSRTYDETYQRYRPVSTSSSTTPSSSLSTMSSSLYASSQLNRPNSLVGITSAYSRGITKENEREGEKREEEKEGEDKSQPKSIRERRRPREKRRSTGVSFWTQDSDENEQEQQSDTEEGSNKKETQTDSISRYETSSTSAGDRYDSLLGRSGSYSYLEERKPYSSRLEKDDSTDFKKLYEQILAENEKLKAQLHDTNMELTDLKLQLEKATQRQERFADRSLLEMEKRERRALERRISEMEEELKMLPDLKADNQRLKDENGALIRVISKLSK
notes: domain: MBS-Cterm (base pairs 2043-3090)
Consider B3, for which the binding result in test [3] is “binds”.

B4: 6×his CC2 (polyhistidine fusion of M-RIP coiled-coil domain 2) (other)
chain: AAMEETHQKKIEDLQRQHQRELEKLREEKDRLLAEETAATISAIEAMKNAHREEMERELEKSQRSQISSVNSDVEALRRQYLEELQSVQRELEVLSEQYSQKCLENAHLAQALEAERQALRQCQRENQELNAHNQELNNRLAAEITRLRTL
notes: not shown: polyhistidine (6xhis) tag of the pQE vector
Regarding B4, the binding result in test [4] was “binds”.
